US20230270832A1, “MAGEA1 IMMUNOGENIC PEPTIDES, BINDING PROTEINS RECOGNIZING MAGEA1 IMMUNOGENIC PEPTIDES, AND USES THEREOF” (TScan Therapeutics, Inc., priority 2021, published 2023)

Tested on: cell lines with low to zero MAGEA1 expression
Assay type: cell-based, human
Experimental: Cancer cell lines were purchased from ATCC (Manassas, Vα.) and HEK293T cells were originally from Takara Bio (Shiga, Japan). All media were supplemented with […], except U266B1 which required 15% FBS, and 1% penicillin and incubated at 37° C. in 5% CO2. A101D (high MAGE-A1 expresing cells; TPM: 359), A2058 (medium MAGE-A1 expresing cells; TPM: 128), HS294T, and HEK293T cells were maintained in complete DMEM. SK-MEL-5 was cultured in complete EMEM, whereas U266B1, NCIH1437 and 786-0 required complete RPMI. Untransduced cancer cells were maintained in preparation for the T cell recognition assay, and 10^6 cells of each cell line were introduced with Incucyte® NucLight™ Red lentivirus reagent (Sartorius, Gottingen, Germany) Positively-labeled cells were selected using 1.5 ug/mL of puromycin over 72 hours.
Cancer cells selected for Incucyte® NucLight™ analysis were seeded into 96-well flat bottom plates (Corning, Flintshire, UK) at 10^4 cells. On the same day, T cells were thawed, washed in complete RPMI-1640, and allowed to rest overnight in medium with 50 U/mL IL-2 (PeproTech), 5 ng/mL IL-7, and 5 ng/mL IL-15 (R&D Systems). All cells were rested overnight at 37° C. in 5% CO2. […] Imaging utilized a 4x objective lens and data were analyzed using the Incucyte® Basic Software. […]

B1: TCR 32-41: T cell receptor recognizing MAGEA1 epitope presented by HLA-C*07:02; alpha TRAV27/TRAJ52, beta TRBV12-4/TRBJ1-4; wild type, HM and MGTM sequences listed (protein)
TCR alpha: QLLEQSPQFLSIQEGENLTVYCNSSSVFSSLQWYRQEPGEGPVLLVTVVTGGEVKKLKRLTFQFGDARKDSSLHITAAQPGDTGLYLCAGDESISYGKLTFGQGTILTVHPNIQNPEPAVYQLKDPRSQDSTLCLFTDFDSQINVPKTMESGTFITDKCVLDMKAMDSKSNGAIAWSNQTSFTCQDIFKETNATYPSSDVPCDATLTEKSFETDMNLNFQNLLVMVLRILLLKVAGFNLLMTLRLWSS
TCR beta: DAGVIQSPRHEVTEMGQEVTLRCKPISGHDYLFWYRQTMMRGLELLIYFNNNVPIDDSGMPEDRFSAKMPNASFSTLKIQPSEPRDSAVYFCASSFLGWNEKLFFGSGTQLSVLEDLRNVTPPKVSLFEPSKAEIANKQKATLVCLARGFFPDHVELSWWVNGKEVHSGVCTDPQAYKESNYSYCLSSRLRVSATFWHNPRNHFRCQVQFHGLSEEDKWPEGSPKPVTQNISAEAWGRADCGITSASYQQGVLSATILYEILLGKATLYAVLVSTLVVMAMVKRKNS
cytotoxic activity (killing) on cell lines with low to zero MAGEA1: does not kill cell lines with low to zero MAGEA1 expression
